# Data: article PMC8836349, “Characterization of adenine phosphoribosyltransferase (APRT) activity in Trypanosoma brucei brucei: Only one of the two isoforms is kinetically active” (PLoS Neglected Tropical Diseases, 2022)
# T1: APRT1 (TbbAPRT1) (Trypanosoma brucei, UniProt Q57V32)
# T1 construct: gene Tb07.43M14.180; full-length ORF, codon optimized, expressed in Pichia pastoris; His6/mCherry tag removed with TEV protease; homodimer
# T1 sequence (Q57V32 1-235): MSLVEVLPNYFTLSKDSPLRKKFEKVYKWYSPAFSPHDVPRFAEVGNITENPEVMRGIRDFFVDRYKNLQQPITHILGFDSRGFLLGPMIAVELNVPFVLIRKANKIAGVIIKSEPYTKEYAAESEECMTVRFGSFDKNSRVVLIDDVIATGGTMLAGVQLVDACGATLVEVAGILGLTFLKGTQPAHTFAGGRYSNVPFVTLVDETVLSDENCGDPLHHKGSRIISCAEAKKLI
# B1: APRT2 (Trypanosoma brucei brucei TREU927) (protein)
# chain: MSQYDAILTERHPHHFTLADTHPLAKELHANIFGESDLTHANCAHVYDISSLTEKPALFRKVIEFLKCRYETMGDTGPTHIIGVESRGYIIGAPLAVALGIPFVTARVTKRFPSSFVPEGDDLKYLPMSRSIRNDSIPPRARVLIVDDFIGTGSTMLAALRLADIVAAQVVEVLTVCDVASLGGIKIIRESDDEMFKETPIFTLIHFKLSPREAEEQLEFVNSYITRSRL
# notes: full-length ORF, codon optimized, expressed in Pichia pastoris; N- or C-terminal His6/mCherry tag removed with TEV protease; weak dimer
# B2: Trypanosoma brucei brucei adenine phosphoribosyltransferase 1 (APRT1, Tb927.7.1780) (enzyme, UniProt Q57V32 1-235, looked up)
# chain: MSLVEVLPNYFTLSKDSPLRKKFEKVYKWYSPAFSPHDVPRFAEVGNITENPEVMRGIRDFFVDRYKNLQQPITHILGFDSRGFLLGPMIAVELNVPFVLIRKANKIAGVIIKSEPYTKEYAAESEECMTVRFGSFDKNSRVVLIDDVIATGGTMLAGVQLVDACGATLVEVAGILGLTFLKGTQPAHTFAGGRYSNVPFVTLVDETVLSDENCGDPLHHKGSRIISCAEAKKLI
# notes: APRT1 of Trypanosoma brucei brucei, Tb927.7.1780, UniProt Q57V32; the ORF, codon optimised for P. pastoris, cloned into a pPICZ vector; tags were removed with TEV protease (tag-less APRT1); also called TbbAPRT1; source: Pichia pastoris strain smPP, purified (Ni-NTA, TEV cleavage, second Ni-NTA)
# B3: APRT2 (Trypanosoma brucei brucei putative adenine phosphoribosyltransferase 2, Tb927.7.1790), expressed in P. pastoris, vector not told (natural protein, UniProt Q57V31 1-230, looked up)
# chain: MSQYDAILTERHPHHFTLADTHPLAKELHANIFGESDLTHANCAHVYDISSLTEKPALFRKVIEFLKCRYETMGDTGPTHIIGVESRGYIIGAPLAVALGIPFVTARVTKRFPSSFVPEGDDLKYLPMSRSIRNDSIPPRARVLIVDDFIGTGSTMLAALRLADIVAAQVVEVLTVCDVASLGGIKIIRESDDEMFKETPIFTLIHFKLSPREAEEQLEFVNSYITRSRL
# notes: APRT2 of Trypanosoma brucei brucei, Tb927.7.1790, UniProt Q57V31; the ORF, codon optimised for P. pastoris, cloned into a pPICZ vector; tags were removed with TEV protease; also called TbbAPRT2; source: Pichia pastoris strain smPP, purified (Ni-NTA, TEV cleavage, second Ni-NTA)
# B4: APRT2-Ntag (Trypanosoma brucei brucei putative adenine phosphoribosyltransferase 2, Tb927.7.1790, expressed from pPICZ-Ntag) (natural protein, UniProt Q57V31 1-230, looked up)
# chain: MSQYDAILTERHPHHFTLADTHPLAKELHANIFGESDLTHANCAHVYDISSLTEKPALFRKVIEFLKCRYETMGDTGPTHIIGVESRGYIIGAPLAVALGIPFVTARVTKRFPSSFVPEGDDLKYLPMSRSIRNDSIPPRARVLIVDDFIGTGSTMLAALRLADIVAAQVVEVLTVCDVASLGGIKIIRESDDEMFKETPIFTLIHFKLSPREAEEQLEFVNSYITRSRL
# notes: APRT2 of Trypanosoma brucei brucei, Tb927.7.1790, UniProt Q57V31; the ORF, codon optimised for P. pastoris, cloned into pPICZ-Ntag; Tags removed with TEV protease; measured native-MS mass 25,860 Da (theoretical 25,853 Da); also called TbbAPRT2; source: Pichia pastoris strain smPP, purified (Ni-NTA, TEV cleavage, second Ni-NTA); not shown: His6, N-terminal, cleaved; mCherry, N-terminal, cleaved
# B5: APRT2-Ctag (Trypanosoma brucei brucei putative adenine phosphoribosyltransferase 2, Tb927.7.1790, expressed from pPICZ-Ctag) (natural protein, UniProt Q57V31 1-230, looked up)
# chain: MSQYDAILTERHPHHFTLADTHPLAKELHANIFGESDLTHANCAHVYDISSLTEKPALFRKVIEFLKCRYETMGDTGPTHIIGVESRGYIIGAPLAVALGIPFVTARVTKRFPSSFVPEGDDLKYLPMSRSIRNDSIPPRARVLIVDDFIGTGSTMLAALRLADIVAAQVVEVLTVCDVASLGGIKIIRESDDEMFKETPIFTLIHFKLSPREAEEQLEFVNSYITRSRL
# notes: APRT2 of Trypanosoma brucei brucei, Tb927.7.1790, UniProt Q57V31; the ORF, codon optimised for P. pastoris, cloned into pPICZ-Ctag; Tags removed with TEV protease; measured native-MS mass 26,637 Da (theoretical 26,647 Da), so residues of the TEV site are likely left at the C-terminus; also called TbbAPRT2; source: Pichia pastoris strain smPP, purified (Ni-NTA, TEV cleavage, second Ni-NTA); not …
# How the values were obtained:
# APRT1 (TbbAPRT1) = target: T1, APRT1 (TbbAPRT1); assay: coupled myokinase/pyruvate kinase/lactate dehydrogenase assay, NADH at […] nm; format: biochemical; details: read-out: Apparent inhibition parameters^b
# purified protein [1] = substrate: Nc1ncnc2nc[nH]c12; assay: purified protein; format: biochemical, Trypanosoma brucei; details: 100 mM HEPES pH 7.8, 25 mM MgCl2, room temperature
# purified protein [2] = substrate: O=P(O)(O)OC[C@H]1O[C@H](OP(=O)(O)OP(=O)(O)O)[C@H](O)[C@@H]1O; assay: purified protein; format: biochemical, Trypanosoma brucei; details: varied PRPP (10-250 μM) at fixed adenine 1-20 μM, 100 mM HEPES pH 7.8, 25 mM MgCl2, room temperature
# [3] = target: the molecule itself; assay: cross-linking; dimethyl suberimidate (DMS) 8.7 mM, 0.2 M triethanolamine pH 8.5, purified APRT at 17.8, 35, 69 or 140 ug mL^-1, RT, 5-8 hours; 12% SDS-PAGE, Coomassie Blue
# [4] = target: B2; assay: cell-based or functional assay
# [5] = target: the molecule itself; assay: SEC; Superdex 200 Increase 10/300 GL; 200 uL of APRT1 at 13.8 mg mL^-1 or APRT2 at 10.8 mg mL^-1; 50 mM HEPES pH 7.8, 300 mM NaCl, 50 mM L-arginine, 50 mM L-glutamate; column calibrated with standards of 1,350 to 670,000 Da
# [6] = kinetic dissociation constant from free enzyme, varied adenine (1.5-50 μM) at fixed PRPP 25-150 μM
molecule,measurement,setting,value
Nc1ncnc2cc[nH]c12 [9-deazaadenine],Ki,APRT1 (TbbAPRT1),156 ± 21 µM
B1,Km,"purified protein [1]; adenine 50-500 μM, 1 mM PRPP",253 ± 4 µM
same,kcat,"purified protein [1]; adenine 50-500 μM, 1 mM PRPP",0.003 ± 0.0002 s⁻¹
same,kcat/Km,"purified protein [1]; adenine 50-500 μM, 1 mM PRPP",12 ± 0.8 M⁻¹ s⁻¹
B2,Km,purified protein [1]; [6],2.2 ± 0.7 µM
same,kcat,purified protein [1]; [6],0.62 ± 0.02 s⁻¹
same,Km,purified protein [2],68 ± 11 µM
same,kcat,purified protein [2],0.61 ± 0.04 s⁻¹
same,kcat/Km,purified protein [2],9000 ± 1600 M⁻¹ s⁻¹
same,stoichiometry N,[3],2
B3,fold decrease in AMP formation (APRT activity) of an equimolar mixture pre-incubated 4 hours on ice (100 nM APRT1: 100 nM APRT2) against 200 nM APRT1 alone and 100 nM APRT1 alone,[4],2 fold
same,stoichiometry N,[5],2
B4,stoichiometry N,[3],2
B5,stoichiometry N,[3],2
